The target in test [1] is HDM4 peptide (TAMRA-HDM4 25-43) 25-43 (Homo sapiens), O15151.
For test [2], the target named is T1, CapZ peptide (TAMRA-TRTK) 265-276 (Homo sapiens, UniProt P52907, not fully specified).
T1 chain: {TAMRA}-TRTKIDWNKILS-NH2
In words: fluorescence polarization titration. In general terms: Fluorescence polarisation rises when a labelled molecule tumbles more slowly, as on binding a larger partner.

The text below walks through data of paper PMC7255693 (2020).

As a reminder, the Kd is the constant that tells how readily two partners part at equilibrium. Higher therefore signals lower affinity.

B1: S100A1, P23297 (protein)
chain: MGSELETAMETLINVFHAHSGKEGDKYKLSKKELKELLQTELSGFLDAQKDVDAVDKVMKELDENGDGEVDFQEYVVLVAALTVACNNFFWENS
B1: in test [1], the Kd amounted to 3670 nM.

B2: S100B (protein)
chain: SELEKAMVALIDVFHQYSGREGDKHKLKKSELKELINNELSHFLEEIKEQEVVDKVMETLDNDGDGECDFQEFMAFVAMVTTACHEFFEHE
For the molecule B2, the equilibrium dissociation constant (Kd) in test [2] turned out to be 130 nM. That is a sub-micromolar value.
